Measured values published in patent US20250263440A1, “CD38-BINDING AGENTS AND USES THEREOF” (PeptiDream Inc., priority 2019, published 2025).
Values belong to the molecule of their own block, whether it stands above or below them. Starred links: 1 amine or outer side, 2 acyl side, 3 side chain; linkers in the order of their positions; H or OH if unused. Positions of bridges follow the written chain, without caps; N, C: chain ends. Non-standard residues stand in square brackets, D forms with d. Residues, ends and D or L forms follow the SMILES beside them. No end group written: not given here. F3G = 3-guanidinophenylalanine, N=C(N)Nc1cccc(C[C@H](N[*:1])C(=O)[*:2])c1; PEG12 = NCCOCCOCCOCCOCCOCCOCCOCCOCCOCCOCCOCCOCCC(=O)O; Bip = N[C@@H](Cc1ccc(-c2ccccc2)cc1)C(=O)O; Met(O2) = CS(=O)(=O)CC[C@H](N)C(=O)O; NMeF = CN[C@@H](Cc1ccccc1)C(=O)O; hArg = N=C(N)NCCCC[C@H](N)C(=O)O; Ahp(2) = CCCCC[C@H](N)C(=O)O; PEG4 = NCCOCCOCCOCCOCCC(=O)O

Experiments:
CD38 [1] = target: T1, CD38 (Homo sapiens, UniProt P28907); test: ELISA binding assay of I-1 / I-2 sequence variants to CD38
T1 construct: purchased R&D Systems
Protocol: Recombinant human CD38 proteins were purchased from R&D Systems. In some embodiments, the following codons were used. ClAc-Ala: N-Chloroacetyl-L-alanine; MePhe: N-Methyl-L-phenylalanine; MeGly: N-Methyl-glycine; Ahp: (S)-2-aminoheptanoic acid; Bph: (S)-3-([1,1′-biphenyl]-4-yl)-2-aminopropanoic acid.
A number of compounds having similar structures to compound I-1 (difference being amino acid sequence) were prepared and assessed in an ELISA assay. The first sequence is of I-1, and SEQ ID.NO.1.
A number of compounds having similar structures to compound I-2 (difference being amino acid sequence) were prepared and assessed in an ELISA assay. The first sequence is of I-2, and SEQ ID NO. 2.

CD38 [2] = target: T1, CD38; test: SPR assay (BIACORE T200, Sensor Chip CM3, single-cycle kinetics) of binding to immobilized CD38; details: for kon / koff: SPR Biacore T200, CM3 chip, HBS-EP with 1% DMSO; for kon: read-out: Ka (association rate constant); for koff: read-out: Kd (dissociation rate constant); for Kd: pegylated compounds, SPR as in Example 2
Protocol: One of many useful technology for assessing CD38 binding is surface plasmon resonance (SPR). For example, the binding constant of I-1 (SEQ ID NO. 1; same as below) and I-2 (SEQ ID NO. 2; same as below) to CD38 was analyzed by a SPR assay using BIACORE T200 (cytiva: Former GE Healthcare). After the equilibration of Series S Sensor Chip CM3 (produced by cytiva: Former GE Healthcare) with Running Buffer (HBS-EP with 1% (v/v) DMSO), an EDC/NHS mixture was injected at a flow rate of […] for 4 minutes to thereby activate the functional groups on sensor chip. CD38 in 10 mM Acetate (pH5.5) was injected immobilized to at a flow rate of 5 L/min. For 4 minutes to immobilize the CD38 on the substrate surfaces of the sensor chip. Then Ethanolamine was injected at a flow rate of […] for 4 minutes. 1.0 M Ethanolamine (aq.) was injected at a flow rate of […] for 420 seconds for capping. 10 mM Peptides in DMSO were diluted to obtain 10 uM with Running Buffer, and prepared 100 nM, 50 nM, 25 nM, 10 nM, 5 nM of each peptide solutions (Peptide Samples).
(§1) Using these Peptide Samples, kinetics of peptides against CD38 was measured. The method adopted for sample measurement was a single-cycle kinetics method. The analysis was conducted using the evaluation software provided with Biacore T200. A DMSO correction curve obtained by solvent correction measurements was applied for the analysis. Kinetics fitting was done on the difference data obtained by subtracting the baseline data from sample measurement data.
KD values were calculated based on the association rate constant (ka) and dissociation rate constant (kd).
The binding constant of pegylated compounds was analyzed by a surface plasmon resonance as in the Example −2.

His-tagged CD38 = target: T2, His-tagged CD38 (human, UniProt P28907 43-300, limits assumed); test: SPR (Biacore S200), His-tagged CD38 immobilised, single-cycle kinetics
T2 construct: The order of CD38 and tag is not known; not shown: His tag
Protocol: EDC/NHS mixture was injected at a flow rate of […] for 7 minutes to thereby activate the functional groups on sensor chip. His-tagged CD38 in Running Buffer (10 mM HEPES pH7.4, 150 mM NaCl, 0.05% Tween 20) was injected immobilized to at a flow rate of […]. For 7 minutes to immobilize the CD38 on the substrate surfaces of the sensor chip. Then Ethanolamine was injected at a flow rate of […] for 7 minutes.
1.0 M Ethanolamine(aq.) was injected at a flow rate of 10 L/min for 420 seconds for capping. 10 mM peptides (which were synthesised described above) in DMSO were diluted to obtain 10 uM with Running Buffer, and prepared 100 nM, 50 nM, 25 nM, 10 nM, 5 nM of each peptide's solutions (Peptide Samples).
as §1, with “against His-tagged” for “against”, “software 1.1” for “software”, “S200.” for “T200.”

[3] = target: Recombinant human CD38 protein (R&D Systems) (human, UniProt P28907 43-300); test: ELISA
[4] = compounds similar to I-1, larger values indicate stronger binding
[5] = compounds similar to I-2, larger values indicate stronger binding

Molecule: CC(C)C[C@@H]1NC(=O)[C@H](C)NC(=O)CSC[C@@H](C(=O)NCCOCCOCCOCCOCCC(=O)N[C@@H](CCCCN)C(N)=O)NC(=O)[C@H](C(C)C)NC(=O)[C@H](Cc2c[nH]c3ccccc23)NC(=O)[C@H](C(C)C)NC(=O)[C@H](Cc2ccc(-c3ccccc3)cc2)NC(=O)[C@@H]2CCCN2C(=O)[C@H](CC(C)C)NC(=O)[C@H](C(C)C)NC(=O)[C@H](Cc2ccccc2)N(C)C(=O)[C@H](Cc2c[nH]cn2)NC1=O [I-5] ({CH2CO}-ALH[NMeF]VLP[Bip]VWVC[PEG4]K-NH2; thioether N-12)
Kd (CD38 [2]): 10.5 nM

Molecule: CC(C)C[C@@H]1NC(=O)[C@H](C)NC(=O)CSC[C@@H](C(=O)NCCOCCOCCOCCOCCOCCOCCOCCOCCOCCOCCOCCOCCC(=O)N[C@@H](CCCCN)C(N)=O)NC(=O)[C@H](C(C)C)NC(=O)[C@H](Cc2c[nH]c3ccccc23)NC(=O)[C@H](C(C)C)NC(=O)[C@H](Cc2ccc(-c3ccccc3)cc2)NC(=O)[C@@H]2CCCN2C(=O)[C@H](CC(C)C)NC(=O)[C@H](C(C)C)NC(=O)[C@H](Cc2ccccc2)N(C)C(=O)[C@H](Cc2c[nH]cn2)NC1=O [I-6] ({CH2CO}-ALH[NMeF]VLP[Bip]VWVC[PEG12]K-NH2; thioether N-12)
Kd (CD38 [2]): 11.7 nM

Molecule: A A Ahp Y H D G V L Bph Ahp D C: compound of similar structure to I-1, difference being amino acid sequence: Ala at position 2 (YHDGVL[Bip][Ahp(2)]DC; not fully specified (N-terminus, bridges))
Binding Assay (CD38 [1]; [4]): 0.60

Molecule: A L H A V L P Bph V W V C: compound of similar structure to I-2, difference being amino acid sequence: Ala at position 4 (ALHAVLP[Bip]VWVC; not fully specified (N-terminus, bridges))
Binding Assay (CD38 [1]; [5]): 0.10

Molecule: A R Ahp A H D G V L Bph Ahp D C: compound of similar structure to I-1, difference being amino acid sequence: Ala at position 4 (AHDGVL[Bip][Ahp(2)]DC; not fully specified (N-terminus, bridges))
Binding Assay (CD38 [1]; [4]): 0.11

Molecule: A R Ahp Y A D G V L Bpb Ahp D C: compound of similar structure to I-1, difference being amino acid sequence: Ala at position 5 (YADGVL; not fully specified (N-terminus, C-terminus, bridges))
Binding Assay (CD38 [1]; [4]): 0.28

Molecule: {CH2CO}-AR[Ahp(2)]YHDGV[Met(O2)][Bip][Ahp(2)]DC (thioether N-13; not fully specified) [Circular peptide having amino acid sequence represented by SEQ ID NO.9]
Kd (His-tagged CD38): 9.44 nM

B1: Circular peptide having amino acid sequence represented by SEQ ID NO.13 (peptide)
peptide: {CH2CO}-AR[Ahp(2)]YHDQV[Met(O2)][Bip][Ahp(2)]DC
modifications: thioether N-13; not fully specified; also: circular peptide, closure not given here
Kd (His-tagged CD38): 22.2 nM

Molecule: {CH2CO}-ALH[NMeF]VLP[Bip]VWAC (thioether N-12) [I-2 analogue with Ala at position 11 (A L H MeF V L P Bph V W A C)]
Binding Assay (larger values indicate stronger binding) [3]: 0.41

B2: Circular peptide having amino acid sequence represented by SEQ ID NO.14 (peptide)
peptide: {CH2CO}-AR[Ahp(2)]YHDEV[Met(O2)][Bip][Ahp(2)]DC
modifications: thioether N-13; not fully specified; also: circular peptide, closure not given here
Kd (His-tagged CD38): 38 nM

B3: Circular peptide having amino acid sequence represented by SEQ ID NO.29 (peptide)
peptide: {CH2CO}-A[F3G][Ahp(2)]YHDEVL[Bip][Ahp(2)]DC
modifications: thioether N-13; not fully specified; also: circular peptide, closure not given here
Kd (His-tagged CD38): 2 nM

B4: Circular peptide having amino acid sequence represented by SEQ ID NO.25 (peptide)
peptide: ARXYHDEVLXXDC
modifications: not fully specified; Ahp at 3; Bph at 10; PhNle ((S)-2-amino-6-phenylhexanoic acid) at 11; circular peptide
Kd (His-tagged CD38): 1.38 nM

B5: Circular peptide having amino acid sequence represented by SEQ ID NO.26 (peptide)
peptide: ARXYHDEVLXXDC
modifications: not fully specified; Ahp at 3; Bph at 10; PhNva ((S)-2-amino-5-phenylpentanoic acid) at 11; circular peptide
Kd (His-tagged CD38): 26 nM

B6: Circular peptide having amino acid sequence represented by SEQ ID NO.24 (peptide)
peptide: ARXYHDEVLXXDC
modifications: not fully specified; Ahp at 3; Bph at 10; Ado ((S)-2-aminoundecanoic acid) at 11; circular peptide
Kd (His-tagged CD38): 3.53 nM

B8: Circular peptide having amino acid sequence represented by SEQ ID NO.23 (peptide)
peptide: ARXYHDEVLXXDC
modifications: not fully specified; Ahp at 3; Bph at 10; Ano ((S)-2-aminononanoic acid) at 11; circular peptide
Kd (His-tagged CD38): 3.34 nM

Further lines, results first:

Binding Assay (CD38 [1]; [4]): 1.97 | kon (CD38 [2]): 770000 M⁻¹ s⁻¹ | koff (CD38 [2]): 0.0018 s⁻¹
Molecule: CCCCC[C@@H]1NC(=O)[C@H](CCCNC(=N)N)NC(=O)[C@H](C)NC(=O)CSC[C@@H](C(N)=O)NC(=O)[C@H](CC(=O)O)NC(=O)[C@H](CCCCC)NC(=O)[C@H](Cc2ccc(-c3ccccc3)cc2)NC(=O)[C@H](CC(C)C)NC(=O)[C@H](C(C)C)NC(=O)CNC(=O)[C@H](CC(=O)O)NC(=O)[C@H](Cc2c[nH]cn2)NC(=O)[C@H](Cc2ccc(O)cc2)NC1=O [I-1]

Binding Assay (CD38 [1]; [5]): 1.69 | kon (CD38 [2]): 360000 M⁻¹ s⁻¹ | koff (CD38 [2]): 0.013 s⁻¹
Molecule: CC(C)C[C@@H]1NC(=O)[C@H](C)NC(=O)CSC[C@@H](C(N)=O)NC(=O)[C@H](C(C)C)NC(=O)[C@H](Cc2c[nH]c3ccccc23)NC(=O)[C@H](C(C)C)NC(=O)[C@H](Cc2ccc(-c3ccccc3)cc2)NC(=O)[C@@H]2CCCN2C(=O)[C@H](CC(C)C)NC(=O)[C@H](C(C)C)NC(=O)[C@H](Cc2ccccc2)N(C)C(=O)[C@H](Cc2c[nH]cn2)NC1=O [I-2] ({CH2CO}-ALH[NMeF]VLP[Bip]VWVC-NH2; thioether N-12)

Kd (CD38 [2]): 4.3 nM
Molecule: CCCCC[C@@H]1NC(=O)[C@H](CCCNC(=N)N)NC(=O)[C@H](C)NC(=O)CSC[C@@H](C(=O)NCCOCCOCCOCCOCCOCCOCCOCCOCCOCCOCCOCCOCCC(=O)N[C@@H](CCCCN)C(N)=O)NC(=O)[C@H](CC(=O)O)NC(=O)[C@H](CCCCC)NC(=O)[C@H](Cc2ccc(-c3ccccc3)cc2)NC(=O)[C@H](CC(C)C)NC(=O)[C@H](C(C)C)NC(=O)CNC(=O)[C@H](CC(=O)O)NC(=O)[C@H](Cc2c[nH]cn2)NC(=O)[C@H](Cc2ccc(O)cc2)NC1=O [I-4]

Binding Assay (CD38 [1]; [5]): 0.09
Molecule: A L H MeF V L P A V W V C: compound of similar structure to I-2, difference being amino acid sequence: Ala at position 8 (VLPAVWVC; not fully specified (N-terminus, bridges))

Binding Assay (CD38 [1]; [4]): 0.11
Molecule: A R A Y H D G V L Bph Ahp D C: compound of similar structure to I-1, difference being amino acid sequence: Ala at position 3 (ARAYHDGVL[Bip][Ahp(2)]DC; not fully specified (N-terminus, bridges))

Kd (His-tagged CD38): 4.99 nM
Molecule: {CH2CO}-AR[Ahp(2)]YHDEVL[Bip][Ahp(2)]AC (thioether N-13) [Peptide of SEQ ID NO.27]

Kd (His-tagged CD38): 2.29 nM
B7: Circular peptide having amino acid sequence represented by SEQ ID NO.12 (peptide)
peptide: {CH2CO}-AR[Ahp(2)]YHD[hArg]VL[Bip][Ahp(2)]DC
modifications: thioether N-13; not fully specified; also: circular peptide, closure not given here
